According to publication PMC3913127 (Nature immunology, 2012):

Target: …-loaded H-2D^d (mouse | )
Experiment: SPR

B1: Ly49A EC (entire extracellular domain of Ly49A, residues 67-262) (receptor, mouse (C57BL/6), UniProt P20937 67-262, looked up)
chain: KIFQYDQQKNCEEFLNHHNNCSNMQSDINLKDEMLKNKSIECDLLESLNRDQNRLYNKTKTVLDSLQHTGRGDKVYWFCYGMKCYYFVMDRKTWSGCKQACQSSSLSLLKIDDEDELKFLQLVVPSDSCWVGLSYDNKKKDWAWIDNRPSKLALNTGKYNIRDGGCMLLSKTRLDNGNCDQVFICICGKRLDKFPH
modifications: biotin (biotinylated Ly49A EC, captured on streptavidin)
  Kd: 2050 ± 70 nM
  koff: 0.00338 s⁻¹
  kon: 1650 M⁻¹ s⁻¹
